{"source": "patent US20230235029A1", "about": "(INTEGRATED BIOTHERAPEUTICS, published 2023)", "target": "T1, Marburg virus Musoke GP on rVSV pseudotype (VSV-MARV Musoke GP) (Marburg virus, Musoke strain, UniProt P35253 19-681)", "T1 sequence": "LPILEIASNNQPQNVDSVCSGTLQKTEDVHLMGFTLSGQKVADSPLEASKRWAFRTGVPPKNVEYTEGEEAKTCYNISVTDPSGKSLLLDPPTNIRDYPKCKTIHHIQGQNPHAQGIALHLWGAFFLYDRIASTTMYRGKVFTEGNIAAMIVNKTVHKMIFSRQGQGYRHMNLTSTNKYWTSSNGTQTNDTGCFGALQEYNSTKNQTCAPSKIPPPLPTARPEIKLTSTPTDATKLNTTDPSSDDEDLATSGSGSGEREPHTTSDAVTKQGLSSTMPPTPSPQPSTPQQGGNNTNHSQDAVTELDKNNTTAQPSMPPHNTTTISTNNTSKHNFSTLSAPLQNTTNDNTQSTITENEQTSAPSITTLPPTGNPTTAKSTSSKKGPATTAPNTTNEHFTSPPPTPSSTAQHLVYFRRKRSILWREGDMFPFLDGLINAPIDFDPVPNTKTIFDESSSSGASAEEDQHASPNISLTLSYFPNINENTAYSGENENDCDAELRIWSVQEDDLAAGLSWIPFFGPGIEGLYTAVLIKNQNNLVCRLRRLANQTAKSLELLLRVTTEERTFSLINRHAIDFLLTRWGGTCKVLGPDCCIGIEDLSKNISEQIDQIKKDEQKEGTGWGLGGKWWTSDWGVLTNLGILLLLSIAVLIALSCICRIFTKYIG", "experiment": "cell-based or functional assay", "data": [{"binder": "R217 (antibody, V domains shown) VH: QVQLQESGPGLVKPSETLSLTCAVSGASISSNWWNWIRQPPGRGLEWLGEIYGYSGSTSYNPYLKSRVTISKDASRNQISLKLNAVTAADTAVYYCARDPLNQDAFDFWGQGLRVTVSS VL: QSALTQPPSVSGSPGQSVTISCTGTSSDIGGYDYVSWYQHHPGKAPKLMIYDVNERPAGVSDRFSGSKSGNTASLTISGLQAEDEADYFCSSYAGRKTLLFGGGTRLTVL", "values": [{"measurement": "EC50 (read off the curve)", "result": "~0.3", "unit": "µg/mL"}]}]}
